Results on one substance are retold here after patent US20250289888A1.

Targets include mouse FcγRIV (mouse); human FcγRIIb (human) (UniProt P31994); mouse FcγRIII (mouse) (UniProt P08508).
What all share (test): cell-based or functional assay
In experiment [1] the target is human FcγRIIa, R variant (human) (UniProt P12318).
Experiment [2] has as its target human FcγRIIa, H variant (human) (UniProt P12318).

Chain of human FcγRIIb (human) (P31994 43-310): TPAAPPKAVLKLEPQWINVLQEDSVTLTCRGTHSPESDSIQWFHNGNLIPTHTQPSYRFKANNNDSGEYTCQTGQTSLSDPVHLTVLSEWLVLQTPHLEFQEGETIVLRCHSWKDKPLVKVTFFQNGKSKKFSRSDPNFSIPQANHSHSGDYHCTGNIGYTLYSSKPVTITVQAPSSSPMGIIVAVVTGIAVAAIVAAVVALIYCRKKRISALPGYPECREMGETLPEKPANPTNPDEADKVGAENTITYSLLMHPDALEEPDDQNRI
Chain of human FcγRIIa, H variant (human) (P12318 34-317, change not shown): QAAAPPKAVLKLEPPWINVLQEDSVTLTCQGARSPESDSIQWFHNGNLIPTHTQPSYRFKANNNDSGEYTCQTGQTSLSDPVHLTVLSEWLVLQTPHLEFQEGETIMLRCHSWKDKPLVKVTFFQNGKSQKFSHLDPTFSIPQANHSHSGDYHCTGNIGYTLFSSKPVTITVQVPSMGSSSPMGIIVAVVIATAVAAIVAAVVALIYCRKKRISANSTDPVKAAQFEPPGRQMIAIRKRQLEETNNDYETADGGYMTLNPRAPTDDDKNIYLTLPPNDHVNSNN
Chain of mouse FcγRIV (mouse) (A0A0B4J1G0 21-203): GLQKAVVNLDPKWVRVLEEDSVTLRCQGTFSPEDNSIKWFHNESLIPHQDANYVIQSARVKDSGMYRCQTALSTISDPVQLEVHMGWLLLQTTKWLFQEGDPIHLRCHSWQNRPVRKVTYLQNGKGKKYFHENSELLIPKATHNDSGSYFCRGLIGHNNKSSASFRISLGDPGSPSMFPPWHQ
Chain of human FcγRIIa, R variant (human) (P12318 other isoform, or with tags, fused parts or gaps mutant limits assumed): as the sequence (P12318 34-317, change not shown) above, with H134R counted along it
Chain of mouse FcγRIII (mouse) (P08508 31-261): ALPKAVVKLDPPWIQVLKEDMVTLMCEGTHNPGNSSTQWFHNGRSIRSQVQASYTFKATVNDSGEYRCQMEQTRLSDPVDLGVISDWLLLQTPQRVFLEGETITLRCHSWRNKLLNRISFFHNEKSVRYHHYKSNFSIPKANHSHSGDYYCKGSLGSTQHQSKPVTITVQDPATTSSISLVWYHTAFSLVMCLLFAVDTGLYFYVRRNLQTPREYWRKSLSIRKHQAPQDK

One may read the EC50 as the midpoint of the concentration-response curve. A low value points to higher potency in that assay. On to Ipilimumab (antibody), for which the EC50 with mouse FcγRIV (mouse) worked out at 2.21 µg/mL; in experiment [1] it was 0.21 µg/mL; in experiment [2] it was 0.05 µg/mL; with human FcγRIIb (human), 0.17 µg/mL. The Maximum luminescence (RLU) in the experiment with mouse FcγRIV (mouse) was found to be 990 RLU; in experiment [1] it was 2640 RLU; in experiment [2], 973 RLU; in the experiment with human FcγRIIb (human), 5800 RLU; with mouse FcγRIII (mouse) it was 17500 RLU.
